Residue numbers refer to the chain shown, from its start. Names and notes keep the numbering of the source. Values joined by “and” are separate entries in the source; they are usually repeats but may differ in a detail not shown here. Equal entries are not always repeated.
B1: UDP-glucose 6-dehydrogenase (UGDH), human, wild type, recombinant (enzyme, UniProt O60701 1-494, looked up)
chain: MFEIKKICCIGAGYVGGPTCSVIAHMCPEIRVTVVDVNESRINAWNSPTLPIYEPGLKEVVESCRGKNLFFSTNIDDAIKEADLVFISVNTPTKTYGMGKGRAADLKYIEACARRIVQNSNGYKIVTEKSTVPVRAAESIRRIFDANTKPNLNLQVLSNPEFLAEGTAIKDLKNPDRVLIGGDETPEGQRAVQALCAVYEHWVPREKILTTNTWSSELSKLAANAFLAQRISSINSISALCEATGADVEEVATAIGMDQRIGNKFLKASVGFGGSCFQKDVLNLVYLCEALNLPEVARYWQQVIDMNDYQRRRFASRIIDSLFNTVTDKKIAILGFAFKKDTGDTRESSSIYISKYLMDEGAHLHIYDPKVPREQIVVDLSHPGVSEDDQVSRLVTISKDPYEACDGAHAVVICTEWDMFKELDYERIHKKMLKPAFIFDGRRVLDGLHNELQTIGFQIETIGKKVSSKRIPYAPSGEIPKFSLQDPPNKKPKV
notes: UDP-glucose 6-dehydrogenase, human; In solution a mix of hexamer (trimer of dimers) and dimer; also called UGDH WT; WT UGDH
B2: UGDH S316A, phosphodeficient point mutant, recombinant (enzyme, human, UniProt O60701 1-494, looked up)
chain: B1 chain with S316A
notes: UDP-glucose 6-dehydrogenase, human
B3: UGDH S316D, phosphomimetic point mutant, recombinant (enzyme, human, UniProt O60701 1-494, looked up)
chain: B1 chain with S316D
notes: as for B2
B4: UGDH T325D, obligate dimer mutant (enzyme, human)
chain: MFEIKKICCIGAGYVGGPTCSVIAHMCPEIRVTVVDVNESRINAWNSPTLPIYEPGLKEVVESCRGKNLFFSTNIDDAIKEADLVFISVNTPTKTYGMGKGRAADLKYIEACARRIVQNSNGYKIVTEKSTVPVRAAESIRRIFDANTKPNLNLQVLSNPEFLAEGTAIKDLKNPDRVLIGGDETPEGQRAVQALCAVYEHWVPREKILTTNTWSSELSKLAANAFLAQRISSINSISALCEATGADVEEVATAIGMDQRIGNKFLKASVGFGGSCFQKDVLNLVYLCEALNLPEVARYWQQVIDMNDYQRRRFASRIIDSLFNDVTDKKIAILGFAFKKDTGDTRESSSIYISKYLMDEGAHLHIYDPKVPREQIVVDLSHPGVSEDDQVSRLVTISKDPYEACDGAHAVVICTEWDMFKELDYERIHKKMLKPAFIFDGRRVLDGLHNELQTIGFQIETIGKKV
notes: UDP-glucose 6-dehydrogenase, human, with T325D; also called UGDH T325D dimeric mutant
B5: UGDH Δ132, hexameric mutant (enzyme, human)
chain: MFEIKKICCIGAGYVGGPTCSVIAHMCPEIRVTVVDVNESRINAWNSPTLPIYEPGLKEVVESCRGKNLFFSTNIDDAIKEADLVFISVNTPTKTYGMGKGRAADLKYIEACARRIVQNSNGYKIVTEKSTPVRAAESIRRIFDANTKPNLNLQVLSNPEFLAEGTAIKDLKNPDRVLIGGDETPEGQRAVQALCAVYEHWVPREKILTTNTWSSELSKLAANAFLAQRISSINSISALCEATGADVEEVATAIGMDQRIGNKFLKASVGFGGSCFQKDVLNLVYLCEALNLPEVARYWQQVIDMNDYQRRRFASRIIDSLFNTVTDKKIAILGFAFKKDTGDTRESSSIYISKYLMDEGAHLHIYDPKVPREQIVVDLSHPGVSEDDQVSRLVTISKDPYEACDGAHAVVICTEWDMFKELDYERIHKKMLKPAFIFDGRRVLDGLHNELQTIGFQIETIGKKV
notes: construct of earlier work; Named only once, as a control of the gel filtration

Key:
[1] = molecular target: the molecule itself; assay: SEC; gel filtration chromatography of the purified enzyme, before addition of substrate and cofactor; hexamer and dimer peaks
[2] = molecular target: the molecule itself; assay: SEC; gel filtration chromatography of the purified enzyme with substrate and cofactor added (holocomplex)

| Protein | stoichiometry N [1] | stoichiometry N [2] |
| --- | --- | --- |
| B1 | 6 and 2 |  |
| B2 | 2 | 6 |
| B3 | 2 | 6 |
| B4 | 2 |  |
| B5 | 6 |  |

— paper PMC13330650, “Phosphorylation of UDP-glucose dehydrogenase increases glycosaminoglycan biosynthesis and promotes tumor cell motility, spheroid growth, and therapeutic resistance” (Matrix biology : journal of the International Society for …, 2025)
